Measurements reported in patent publication US20100183588A1 (IVS INSTITUT DES VAISSEAUX ET DU SANG, published 2010).

Target: UNC5H4 receptor of the pericytes and smooth muscle cells
Assay: cell-based or functional assay

VSM migration: chemotactic activity relative to non-mutated netrin 4: 3000 fold over non-mutated netrin 4 | VSM proliferation: mitogenic activity relative to non-mutated netrin 4: 1000 fold over non-mutated netrin 4
B1: mutated netrin 4 (SEQ ID NO: 522), recombinant protein (ligand)
chain: LSGVAGVSSRCEKACNPRMGNLALGRKLWADTTCGQNATELYCFYSENTDLTCRQPKCDKCNAAYPHLAHLPSAMADSSFRFPRTWWQSAEDVHREKIQLDLEAEFYFTHLIVMFKSPRPAAMVLDRSQDFGKTWKPYKYFATNCSATFGLEDDVVKKGAICTPKYSSPFPCTGGEVIFKALSPPYDTENPYSAKVQEQLKITNLRVQLLKRQSYPCQRNDLNEEPQHFTHYAIYDFIVKGSCFCNGHADQCIPVHGFRPVKAPGTFHMVHGKCMCKHNTAGSHCQHCAPLYNDRPWEAADGKTGAPNECRTRKCNGHADTCHFDVNVWEASGSRSGGVCDDCQHNTEGQYCQRCKPGFYRDLRRPFSAPDACKPCSCHPVGSAVLPANSVTFCDPSNGDCPCKPGVAGRRCDRCMVGYWGFGDYGCRPCDCAGSCDPITGDCISSHTDIDWCHEVPDFRPVHNKSEPAWEWEDAQGFSALLHSGKCECKEQTLGKAKAFCGMKYSYVLKIKILSAHDKGTHVEVNVKIKKVLKSTKLKIFRGKRTLYPESWTDRGCTCPILNPGLEYLVAGHEDIRTGKLIVNMKSFVQHWKPSLGRKVMDILKRECK
